For 167 variants, abundance fitness results are on record in the Human Domainome abundance scans (Beltran et al. 2025).

B1: Cell division cycle and apoptosis regulator protein 1, residues 625 to 674; numbered along this chain, Q8IX12 (parent)
chain: ISTPTHWSKLDPKTMKVNDLRKELESRALSSKGLKSQLIARLTKQLKVEE
B2: Tripartite motif-containing protein 6, residues 93 to 134; numbered along this chain, Q9C030 (parent)
chain: KAVLCADHGEKLQLFCQEDGKVICWLCERSQEHRGHHTFLVE

± gives the uncertainty stated by the source.

One data set covers variants of B1. Kind of data set: abundance fitness (aPCA) (normalised: wild type 0, dead -1); higher = more abundant; growth selection in yeast, the domain comes from the species named. The note with it: Homo sapiens.
For the variant K32A, the abundance fitness was -0.153 ± 0.043.
Same read-out and setting: the result for K32Y reads -0.138 ± 0.045; that for K32V, -0.233 ± 0.032; that for K32T, -0.066 ± 0.049.
The same measure, in the same setting: the result for K13A reads -0.094 ± 0.034; that for K13V, -0.04 ± 0.029.
With K13M, the abundance fitness came to 0.002 ± 0.036.
On the same count and under the same terms, as for K13H, the figure is -0.135 ± 0.061.
The same measure, in the same setting: as for Q37S, the figure is -0.061 ± 0.035.
Still for that read-out and setting: the result for Q37K reads -0.108 ± 0.037; that for D19G, -0.196 ± 0.035; that for D19L, 0.021 ± 0.029.
As for D19E, the abundance fitness is -0.275 ± 0.046.
On to D19H, for which the abundance fitness was 0.045 ± 0.034.
Same read-out and setting: as for D19Q, the figure is 0.033 ± 0.03.
The same measure, in the same setting: as for L10C, the figure is -0.338 ± 0.05; as for R21P, -0.682 ± 0.098; as for R21A, -0.192 ± 0.045.
Still for that read-out and setting: the result for R21M reads 0.036 ± 0.049; that for R21T, -0.155 ± 0.037; that for R21H, -0.199 ± 0.068.
L46K: the abundance fitness is -0.347 ± 0.056.
Consider L46T, for which the abundance fitness is -0.467 ± 0.057.
On to L46R, for which the abundance fitness is -0.554 ± 0.044.
Same read-out and setting: as for L46V, the figure is -0.258 ± 0.035; as for K16H, 0.061 ± 0.076; as for K16R, -0.173 ± 0.036.
On the same count and under the same terms, the result for K16C reads -0.048 ± 0.066.
Same read-out and setting: the result for K16I reads -0.127 ± 0.052.
In the case of K16Y, the abundance fitness is -0.153 ± 0.051.
Still for that read-out and setting: the result for L38R reads -0.583 ± 0.046.
As to L38M, the abundance fitness was -0.049 ± 0.052.
As for E23T, the abundance fitness was -0.672 ± 0.05.
The same measure, in the same setting: as for E23D, the figure is -0.916 ± 0.18.
In the case of E23V, the abundance fitness is -0.924 ± 0.081.
Same read-out and setting: as for E23H, the figure is -0.48 ± 0.067.
Still for that read-out and setting: the result for E23F reads -0.737 ± 0.076; that for E23P, -0.805 ± 0.1; that for W7E, -0.139 ± 0.056.
Turning to W7N, the abundance fitness is -0.29 ± 0.076.
On to W7T, for which the abundance fitness was -0.103 ± 0.035.
The same measure, in the same setting: the result for H6L reads 0.067 ± 0.038.
Consider H6V, for which the abundance fitness was -0.003 ± 0.044.
On the same count and under the same terms, the result for H6M reads -0.036 ± 0.046; that for H6R, -0.092 ± 0.041; that for D11Y, -0.036 ± 0.034.
As to D11T, the abundance fitness amounted to 0.218 ± 0.054.
Consider D11C, for which the abundance fitness was determined as 0.093 ± 0.031.
On the same count and under the same terms, the result for D11P reads -0.738 ± 0.099; that for D11H, 0.074 ± 0.06.
On to Q45M, for which the abundance fitness was -0.216 ± 0.06.
Same read-out and setting: as for Q45R, the figure is 0.01 ± 0.041.
Still for that read-out and setting: as for Q45D, the figure is -0.596 ± 0.073; as for Q45F, -0.237 ± 0.052.
The same measure, in the same setting: the result for Q45A reads -0.045 ± 0.033; that for M15N, -0.942 ± 0.13.
Consider M15P, for which the abundance fitness was -0.83 ± 0.12.
On to M15Q, for which the abundance fitness was -0.679 ± 0.049.
M15R: the abundance fitness is -0.758 ± 0.057.
Regarding M15Y, the abundance fitness is -0.926 ± 0.096.
Still for that read-out and setting: as for M15W, the figure is -0.899 ± 0.062; as for E50W, -0.173 ± 0.12; as for T3E, -0.007 ± 0.033.
Consider T3C, for which the abundance fitness was -0.025 ± 0.038.
As for T3L, the abundance fitness was -0.037 ± 0.041.
For T3R, the abundance fitness was -0.076 ± 0.034.
Take L29D: the abundance fitness was -0.732 ± 0.1.
On to L29F, for which the abundance fitness is -0.112 ± 0.058.
On the same count and under the same terms, the result for L29S reads -0.368 ± 0.031.
On to L34C, for which the abundance fitness was -0.075 ± 0.043.
The same measure, in the same setting: as for L34F, the figure is -0.195 ± 0.052.
With N18C, the abundance fitness stood at 0.051 ± 0.036.
N18Q: the abundance fitness was 0.085 ± 0.029.
Still for that read-out and setting: the result for N18M reads 0.06 ± 0.031; that for K44A, -0.161 ± 0.038; that for K44I, -0.296 ± 0.042.
Regarding K44V, the abundance fitness was -0.31 ± 0.042.
Same read-out and setting: the result for K44M reads -0.355 ± 0.058; that for E49L, -0.983 ± 0.043; that for E49C, -0.606 ± 0.089.
Regarding E49G, the abundance fitness is -0.919 ± 0.044.
For E49W, the abundance fitness was -1 ± 0.11.
Same read-out and setting: the result for K9I reads -0.254 ± 0.072.
Same read-out and setting: the result for K9P reads -0.576 ± 0.057.
Same read-out and setting: the result for K9R reads 0.009 ± 0.038; that for V48F, 0.018 ± 0.074.
In the case of V48R, the abundance fitness is -0.02 ± 0.036.
The same measure, in the same setting: the result for S30G reads -0.026 ± 0.037; that for S30M, -0.067 ± 0.035.
For S30W, the abundance fitness was -0.283 ± 0.043.
Consider S30E, for which the abundance fitness is -0.071 ± 0.043.
With A28Q, the abundance fitness turned out to be 0.151 ± 0.042.
Same read-out and setting: the result for A28L reads 0.04 ± 0.042.
Still for that read-out and setting: the result for A28V reads -0.016 ± 0.033; that for A28T, 0.085 ± 0.037; that for A28D, 0.129 ± 0.064.
On the same count and under the same terms, the result for G33D reads -0.62 ± 0.079; that for G33R, -1.04 ± 0.046.
G33F: the abundance fitness was -0.98 ± 0.14.
The same measure, in the same setting: as for L24D, the figure is -0.881 ± 0.13.
The same measure, in the same setting: as for S8C, the figure is -0.007 ± 0.065; as for S8V, -0.304 ± 0.047.
Regarding T14N, the abundance fitness was found to be 0.038 ± 0.065.
On the same count and under the same terms, the result for T14M reads -0.013 ± 0.044.
As to K47P, the abundance fitness is -0.806 ± 0.095.
On to K47I, for which the abundance fitness is -0.179 ± 0.06.
In the case of K47Y, the abundance fitness was -0.261 ± 0.057.
On the same count and under the same terms, as for S2H, the figure is -0.037 ± 0.047; as for T43P, -0.721 ± 0.043; as for T43E, -0.117 ± 0.037.
Same read-out and setting: the result for T43Y reads -0.281 ± 0.082; that for T43M, -0.094 ± 0.039.
For T43I, the abundance fitness is -0.05 ± 0.06.
Same read-out and setting: as for P4S, the figure is 0.15 ± 0.046; as for P4D, -0.074 ± 0.039.
On the same count and under the same terms, as for P4C, the figure is 0.139 ± 0.056; as for K22F, -0.16 ± 0.06.
Still for that read-out and setting: as for P12Y, the figure is -0.74 ± 0.068; as for P12T, -0.207 ± 0.04.
As for P12C, the abundance fitness was -0.223 ± 0.034.
Still for that read-out and setting: the result for I39C reads -0.059 ± 0.062; that for I39N, -0.26 ± 0.049; that for I39V, 0.022 ± 0.046.
As for I39F, the abundance fitness is -0.518 ± 0.093.
In the case of I39G, the abundance fitness was -0.286 ± 0.035.
The same measure, in the same setting: the result for I39Q reads -0.102 ± 0.062; that for I39P, -0.366 ± 0.066; that for R41S, -0.271 ± 0.035.
As to R41K, the abundance fitness is -0.202 ± 0.03.
Still for that read-out and setting: as for T5R, the figure is -0.103 ± 0.039; as for T5W, -0.616 ± 0.053; as for T5Y, -0.423 ± 0.068.
The same measure, in the same setting: the result for T5F reads -0.772 ± 0.15; that for V17C, 0.115 ± 0.049.
Still for that read-out and setting: as for R27K, the figure is -0.822 ± 0.089.
On to R27I, for which the abundance fitness was -1.1 ± 0.14.
On the same count and under the same terms, the result for R27Y reads -0.995 ± 0.21.
The same measure, in the same setting: the result for R27M reads -0.591 ± 0.082.
Turning to R27Q, the abundance fitness was -0.845 ± 0.098.
In the case of S31A, the abundance fitness came out at 0.005 ± 0.034.
The same measure, in the same setting: the result for S31N reads -0.095 ± 0.059; that for S31H, 0.031 ± 0.059; that for S26I, -0.012 ± 0.068.
Still for that read-out and setting: as for S26Y, the figure is 0.044 ± 0.065.
Still for that read-out and setting: the result for S26E reads 0.026 ± 0.039; that for S26N, 0.025 ± 0.037.
On to S26D, for which the abundance fitness was determined as 0.031 ± 0.062.
Consider S26Q, for which the abundance fitness is 0.001 ± 0.061.
I1V: the abundance fitness was -0.11 ± 0.046.
On the same count and under the same terms, as for I1L, the figure is -0.3 ± 0.085; as for I1C, -0.398 ± 0.18.
Consider L42G, for which the abundance fitness is -0.516 ± 0.039.
The same measure, in the same setting: the result for L42I reads -0.231 ± 0.041; that for L42P, -0.472 ± 0.076; that for A40G, 0.03 ± 0.032.
Regarding A40N, the abundance fitness is -0.066 ± 0.036.
On to S36K, for which the abundance fitness is -0.118 ± 0.062.
S36H: the abundance fitness is -0.195 ± 0.058.
In the case of L20S, the abundance fitness is -0.859 ± 0.058.
For L20Q, the abundance fitness was -0.621 ± 0.076.
Still for that read-out and setting: as for L20A, the figure is -0.618 ± 0.035.

In the next data set the parent is B2. The data set is described as above. As to conditions: Homo sapiens.
Regarding A2M, the abundance fitness worked out at 0.264 ± 0.061.
On to A2K, for which the abundance fitness was 0.133 ± 0.068.
Same read-out and setting: the result for A2D reads -0.031 ± 0.14.
For the variant A2W, the abundance fitness was -0.04 ± 0.052.
The same measure, in the same setting: as for A2P, the figure is -0.071 ± 0.063; as for A2S, 0.045 ± 0.063.
